# Assay results from patent US20230287126A1 (BIO THERA SOLUTIONS, published 2023).
# Where two headings read alike, the source gives them in different places.
# B1: L1-R2-4 (antibody, V domains shown)
# VH: not shown
# VL: EIVLTQSPSSLSASVGDRVTITCLASQTIGTWLAWYQQKPGKSPQLLIYAASTLQSGVPSRFSGSGSGTDFTLTISSLQPEDVATYYCQQYYSTPRTFGQGTKVEIKR
# B2: L1-R2-4-71 (antibody, human IgG1, kappa, V domains shown)
# VH: EVQLVESGGGLVQPGGSLRLSCAASGFTFSDSWIHWVRQAPGKGLEWVGWISPYGGSTYYADSYRSRFTISADTSKNTAYLQMNSLRAEDTAVYYCARRHWPGGFDYWGQGTLVTVSS
# VL: EIVLTQSPSSLSASVGDRVTITCLASQTIGTWLAWYQQKPGKSPQLLIYAASTLQSGVPSRFSGSGSGTDFTLTISSLQPEDVATYYCQQYYSTPRTFGQGTKVEIKR
# B3: L1-R2-4-47 (antibody, human IgG1, kappa, V domains shown)
# VH: EVQLVESGGGLVQPGGSLRLSCAASGFTFSDSWIHWVRQAPGKGLEWVGWISPYGGSTYYADHLSQRFTISADTSKNTAYLQMNSLRAEDTAVYYCARRHWPGGFDYWGQGTLVTVSS
# VL: EIVLTQSPSSLSASVGDRVTITCLASQTIGTWLAWYQQKPGKSPQLLIYAASTLQSGVPSRFSGSGSGTDFTLTISSLQPEDVATYYCQQYYSTPRTFGQGTKVEIKR
# B4: L1-R2-4-36 (antibody, human IgG1, kappa, V domains shown)
# VH: EVQLVESGGGLVQPGGSLRLSCAASGFTFSDSWIHWVRQAPGKGLEWVGWISPYGGSTYYADDFRHRFTISADTSKNTAYLQMNSLRAEDTAVYYCARRHWPGGFDYWGQGTLVTVSS
# VL: EIVLTQSPSSLSASVGDRVTITCLASQTIGTWLAWYQQKPGKSPQLLIYAASTLQSGVPSRFSGSGSGTDFTLTISSLQPEDVATYYCQQYYSTPRTFGQGTKVEIKR
# B5: L1-R2-4-46 (antibody, human IgG1, kappa, V domains shown)
# VH: EVQLVESGGGLVQPGGSLRLSCAASGFTFSDSWIHWVRQAPGKGLEWVGWISPYGGSTYYADSLGDRFTISADTSKNTAYLQMNSLRAEDTAVYYCARRHWPGGFDYWGQGTLVTVSS
# VL: EIVLTQSPSSLSASVGDRVTITCLASQTIGTWLAWYQQKPGKSPQLLIYAASTLQSGVPSRFSGSGSGTDFTLTISSLQPEDVATYYCQQYYSTPRTFGQGTKVEIKR
# B6: L1-R2-89 (antibody, V domains shown)
# VH: not shown
# VL: DIQMTQSPSSLSASVGDRVTITCLASQTIGTWLAWYQQKPGKSPQLLIYAASSLQSGVPSRFSGSGSGTDFTLTISSLQPEDVATYYCQQYYSTPYTFGQGTKVDIKR
# B7: L1-R2-4-55 (antibody, human IgG1, kappa, V domains shown)
# VH: EVQLVESGGGLVQPGGSLRLSCAASGFTFSDSWIHWVRQAPGKGLEWVGWISPYGGSTYYADGMRSRFTISADTSKNTAYLQMNSLRAEDTAVYYCARRHWPGGFDYWGQGTLVTVSS
# VL: EIVLTQSPSSLSASVGDRVTITCLASQTIGTWLAWYQQKPGKSPQLLIYAASTLQSGVPSRFSGSGSGTDFTLTISSLQPEDVATYYCQQYYSTPRTFGQGTKVEIKR
# B8: L1-R2-78 (antibody, V domains shown)
# VH: not shown
# VL: DIQMTQSPSSFSASTGDRVTITCRASQGISSYLAWYQQKPGKAPKLLIYAASRLQSGVPSRFSGSGSGTDFTLTISSLQAEDVAVYYCQQYYSTPYTFGQGTKVDIKR
# B9: L1-R2-18 (antibody, V domains shown)
# VH: not shown
# VL: EIVLTQSPSSVSASVGDRITITCRASQGIGSWLAWYQQKPGKAPSLLIYAASSLQSGVPSRFSGSGSGTDFTLTISSLQTEDVAVYYCQQYFSTPYTFGQGTKVDIKR
# B10: L1-R2-85 (antibody, V domains shown)
# VH: not shown
# VL: DIQMTQSPSSLSASVGDRVTIPCRASQGIGKFLAWYQQKPGKAPSLLIYAASSLQSGVPSRFSGSGSGTDFTLTISSLQTEDVAVYYCQQYFSTPYTFGQGTKVDIKR
# B11: CP11-71 scFv (scFv)
# scFv: EVQLVESGGGLVQPGGSLRLSCAASGFTFSDSWIHWVRQAPGKGLEWVGWISPYGGSTYYADSYRSRFTISADTSKNTAYLQMNSLRAEDTAVYYCARRHWPGGFDYWGQGTLVTVSSGGGGSGGGGSGGGGSEIVLTQSPSSLSASVGDRVTITCLASQTIGTWLAWYQQKPGKSPQLLIYAASTLQSGVPSRFSGSGSGTDFTLTISSLQPEDVATYYCQQYYSTPRTFGQGTKVEIK
# notes: display fusion partner not described; VH at N terminus
# B12: CP22-40 (scFv)
# scFv (VH - linker - VL, VH at the N terminus): EVQLVESGGGLVQPGGSLRLSCAASGFTFSDSWIHWVRQAPGKGLEWVGWISPYGGSTYYADSVKGRFTISADTSKNTAYLQMNSLRAEDTAVYYCARRHWPGGLLPWGQGTLVTVSSGGGGSGGGGSGGGGSEIVLTQSPSSLSASVGDRVTITCLASQTIGTWLAWYQQKPGKSPQLLIYAASTLQSGVPSRFSGSGSGTDFTLTISSLQPEDVATYYCQQYYSTPRTFGQGTKVEIK
# notes: also called CP22-40 scFv
# B13: CP22-45 (scFv)
# scFv (VH - linker - VL, VH at the N terminus): EVQLVESGGGLVQPGGSLRLSCAASNSHLRDSWIHWVRQAPGKGLEWVGWISPYGGSTYYADSVKGRFTISADTSKNTAYLQMNSLRAEDTAVYYCARRHWPGGFDYWGQGTLVTVSSGGGGSGGGGSGGGGSEIVLTQSPSSLSASVGDRVTITCLASQTIGTWLAWYQQKPGKSPQLLIYAASTLQSGVPSRFSGSGSGTDFTLTISSLQPEDVATYYCQQYYSTPRTFGQGTKVEIK
# notes: also called CP22-45 scFv
# B14: CP22-44 (scFv)
# scFv (VH - linker - VL, VH at the N terminus): EVQLVESGGGLVQPGGSLRLSCAASGLRPADSWIHWVRQAPGKGLEWVGWISPYGGSTYYADSVKGRFTISADTSKNTAYLQMNSLRAEDTAVYYCARRHWPGGFDYWGQGTLVTVSSGGGGSGGGGSGGGGSEIVLTQSPSSLSASVGDRVTITCLASQTIGTWLAWYQQKPGKSPQLLIYAASTLQSGVPSRFSGSGSGTDFTLTISSLQPEDVATYYCQQYYSTPRTFGQGTKVEIK
# notes: also called CP22-44 scFv
# B15: CP21-59 (scFv)
# scFv (VH - linker - VL, VH at the N terminus): EVQLVESGGGLVQPGGSLRLSCAASSFSLKDSWIHWVRQAPGKGLEWVGWISPYGGSTYYADSVKGRFTISADTSKNTAYLQMNSLRAEDTAVYYCARRHWPGGFDYWGQGTLVTVSSGGGGSGGGGSGGGGSEIVLTQSPSSLSASVGDRVTITCLASQTIGTWLAWYQQKPGKSPQLLIYAASTLQSGVPSRFSGSGSGTDFTLTISSLQPEDVATYYCQQYYSTPRTFGQGTKVEIK
# notes: also called CP21-59 scFv
# B16: L1-R2-6 (antibody, V domains shown)
# VH: not shown
# VL: EIVLTQSPSSVSASVGDKLTMTCQASQDIGKHLNWYQQKPGKPPKLLIYGASNLKTGVPSRFSGTGSGTDFTLTISSLQPEDFATYYCQQSYTTPYTFGQGTRLEIKR
# Tests used:
# [1] = target: T1, human PD-L1 overexpressed on CHO cells (human, UniProt Q9NZQ7 19-290); assay: cell-based or functional assay
# T1 sequence (Q9NZQ7 19-290): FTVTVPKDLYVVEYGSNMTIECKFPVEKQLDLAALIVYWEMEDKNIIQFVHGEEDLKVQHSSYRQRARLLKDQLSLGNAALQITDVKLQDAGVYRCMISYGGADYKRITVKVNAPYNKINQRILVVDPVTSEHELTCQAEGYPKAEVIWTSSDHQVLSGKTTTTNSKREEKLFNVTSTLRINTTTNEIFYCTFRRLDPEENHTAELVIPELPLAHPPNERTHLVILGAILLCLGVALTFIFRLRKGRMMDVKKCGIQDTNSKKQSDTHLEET
# [2] = target: T1, human PD-L1 overexpressed on CHO cells; assay: cell-based or functional assay; remark: listed apart in the source
# PD-L1-His-Biotin [3] = target: T2, PD-L1-His-Biotin (human, UniProt Q9NZQ7 19-238, biotin-labelled (sites not given)); assay: flow cytometry of yeast-displayed scFv with 1 nM PD-L1-His-Biotin, Streptavidin-PE
# T2 construct: also called PD-L1-His-Biotin antigen protein
# T2 sequence (Q9NZQ7 other isoform, or with tags, fused parts or gaps): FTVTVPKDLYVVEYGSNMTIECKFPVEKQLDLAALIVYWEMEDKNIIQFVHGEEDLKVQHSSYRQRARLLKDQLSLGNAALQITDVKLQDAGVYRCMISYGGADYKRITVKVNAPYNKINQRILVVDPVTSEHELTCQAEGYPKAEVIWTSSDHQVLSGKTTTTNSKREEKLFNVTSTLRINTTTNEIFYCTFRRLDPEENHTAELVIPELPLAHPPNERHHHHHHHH
# Description: (§1) The yeasts described above were incubated with 1 nM of PD-L1-His-Biotin antigen protein at room temperature for 1 h, washed 3 times with PBS at pH 7.4, then incubated with Streptavidin-PE fluorescent secondary antibody at room temperature for 30 min, and washed 3 times with PBS at pH 7.4. The fresh PBS was added, and loaded on the machine for assay.
# PD-L1-His-Biotin [4] = target: T2, PD-L1-His-Biotin; assay: flow cytometry of yeast-displayed scFv with 1 nM PD-L1-His-Biotin, Streptavidin-PE; positive rate %
# Description: as §1
Binder,"EC50 (luciferase reporter luminescence, PD-1/PD-L1 Blockade Bioassay, CHO-PD-L1 + Jurkat-PD1 cells) [1]","EC50 (luciferase reporter luminescence, PD-1/PD-L1 Blockade Bioassay, CHO-PD-L1 + Jurkat-PD1 cells) [2]",other results
B1,2.74 µg/mL,,
B2,,0.382 µg/mL,
B3,,0.389 µg/mL,
B4,,0.148 µg/mL,
B5,,0.224 µg/mL,
B6,3.78 µg/mL,,
B7,,0.401 µg/mL,
B8,3.57 µg/mL,,
B9,5.09 µg/mL,,
B10,5.22 µg/mL,,
B11,,,binding result (PD-L1-His-Biotin [3]): binds
B12,,,binding result (PD-L1-His-Biotin [4]): binds
B13,,,binding result (PD-L1-His-Biotin [4]): binds
B14,,,binding result (PD-L1-His-Biotin [4]): binds
B15,,,binding result (PD-L1-His-Biotin [4]): binds
B16,3.92 µg/mL,,
